Results as given in US20090098148A1.

Target: epidermal growth factor receptor (EGFR) on A431 human epidermoid cells (human) (UniProt P00533)
Experiment: cell-based or functional assay

- mean fluorescence activity (biotin-β-galactosidase delivered into each A431 cell, FACS): 214
- positive cells (delivery of biotin-β-galactosidase into A431 cells, staining and FACS): > 99%
Substance: streptavidin-TGF-α fusion protein (ST-TGF) (from UniProt P22629 40-157; P01135 40-89)
